Laboratory results as given in paper PMC2217211.

Target: endogenous Xenopus type 1 inositol 1,4,5-trisphosphate receptor (Xenopus laevis (endogenous in oocytes)) (UniProt Q91908)
Assay: co-IP

recombinant rat type 3 inositol 1,4,5-trisphosphate receptor, Q63269 1-2670, sequence (Q63269 whole entry): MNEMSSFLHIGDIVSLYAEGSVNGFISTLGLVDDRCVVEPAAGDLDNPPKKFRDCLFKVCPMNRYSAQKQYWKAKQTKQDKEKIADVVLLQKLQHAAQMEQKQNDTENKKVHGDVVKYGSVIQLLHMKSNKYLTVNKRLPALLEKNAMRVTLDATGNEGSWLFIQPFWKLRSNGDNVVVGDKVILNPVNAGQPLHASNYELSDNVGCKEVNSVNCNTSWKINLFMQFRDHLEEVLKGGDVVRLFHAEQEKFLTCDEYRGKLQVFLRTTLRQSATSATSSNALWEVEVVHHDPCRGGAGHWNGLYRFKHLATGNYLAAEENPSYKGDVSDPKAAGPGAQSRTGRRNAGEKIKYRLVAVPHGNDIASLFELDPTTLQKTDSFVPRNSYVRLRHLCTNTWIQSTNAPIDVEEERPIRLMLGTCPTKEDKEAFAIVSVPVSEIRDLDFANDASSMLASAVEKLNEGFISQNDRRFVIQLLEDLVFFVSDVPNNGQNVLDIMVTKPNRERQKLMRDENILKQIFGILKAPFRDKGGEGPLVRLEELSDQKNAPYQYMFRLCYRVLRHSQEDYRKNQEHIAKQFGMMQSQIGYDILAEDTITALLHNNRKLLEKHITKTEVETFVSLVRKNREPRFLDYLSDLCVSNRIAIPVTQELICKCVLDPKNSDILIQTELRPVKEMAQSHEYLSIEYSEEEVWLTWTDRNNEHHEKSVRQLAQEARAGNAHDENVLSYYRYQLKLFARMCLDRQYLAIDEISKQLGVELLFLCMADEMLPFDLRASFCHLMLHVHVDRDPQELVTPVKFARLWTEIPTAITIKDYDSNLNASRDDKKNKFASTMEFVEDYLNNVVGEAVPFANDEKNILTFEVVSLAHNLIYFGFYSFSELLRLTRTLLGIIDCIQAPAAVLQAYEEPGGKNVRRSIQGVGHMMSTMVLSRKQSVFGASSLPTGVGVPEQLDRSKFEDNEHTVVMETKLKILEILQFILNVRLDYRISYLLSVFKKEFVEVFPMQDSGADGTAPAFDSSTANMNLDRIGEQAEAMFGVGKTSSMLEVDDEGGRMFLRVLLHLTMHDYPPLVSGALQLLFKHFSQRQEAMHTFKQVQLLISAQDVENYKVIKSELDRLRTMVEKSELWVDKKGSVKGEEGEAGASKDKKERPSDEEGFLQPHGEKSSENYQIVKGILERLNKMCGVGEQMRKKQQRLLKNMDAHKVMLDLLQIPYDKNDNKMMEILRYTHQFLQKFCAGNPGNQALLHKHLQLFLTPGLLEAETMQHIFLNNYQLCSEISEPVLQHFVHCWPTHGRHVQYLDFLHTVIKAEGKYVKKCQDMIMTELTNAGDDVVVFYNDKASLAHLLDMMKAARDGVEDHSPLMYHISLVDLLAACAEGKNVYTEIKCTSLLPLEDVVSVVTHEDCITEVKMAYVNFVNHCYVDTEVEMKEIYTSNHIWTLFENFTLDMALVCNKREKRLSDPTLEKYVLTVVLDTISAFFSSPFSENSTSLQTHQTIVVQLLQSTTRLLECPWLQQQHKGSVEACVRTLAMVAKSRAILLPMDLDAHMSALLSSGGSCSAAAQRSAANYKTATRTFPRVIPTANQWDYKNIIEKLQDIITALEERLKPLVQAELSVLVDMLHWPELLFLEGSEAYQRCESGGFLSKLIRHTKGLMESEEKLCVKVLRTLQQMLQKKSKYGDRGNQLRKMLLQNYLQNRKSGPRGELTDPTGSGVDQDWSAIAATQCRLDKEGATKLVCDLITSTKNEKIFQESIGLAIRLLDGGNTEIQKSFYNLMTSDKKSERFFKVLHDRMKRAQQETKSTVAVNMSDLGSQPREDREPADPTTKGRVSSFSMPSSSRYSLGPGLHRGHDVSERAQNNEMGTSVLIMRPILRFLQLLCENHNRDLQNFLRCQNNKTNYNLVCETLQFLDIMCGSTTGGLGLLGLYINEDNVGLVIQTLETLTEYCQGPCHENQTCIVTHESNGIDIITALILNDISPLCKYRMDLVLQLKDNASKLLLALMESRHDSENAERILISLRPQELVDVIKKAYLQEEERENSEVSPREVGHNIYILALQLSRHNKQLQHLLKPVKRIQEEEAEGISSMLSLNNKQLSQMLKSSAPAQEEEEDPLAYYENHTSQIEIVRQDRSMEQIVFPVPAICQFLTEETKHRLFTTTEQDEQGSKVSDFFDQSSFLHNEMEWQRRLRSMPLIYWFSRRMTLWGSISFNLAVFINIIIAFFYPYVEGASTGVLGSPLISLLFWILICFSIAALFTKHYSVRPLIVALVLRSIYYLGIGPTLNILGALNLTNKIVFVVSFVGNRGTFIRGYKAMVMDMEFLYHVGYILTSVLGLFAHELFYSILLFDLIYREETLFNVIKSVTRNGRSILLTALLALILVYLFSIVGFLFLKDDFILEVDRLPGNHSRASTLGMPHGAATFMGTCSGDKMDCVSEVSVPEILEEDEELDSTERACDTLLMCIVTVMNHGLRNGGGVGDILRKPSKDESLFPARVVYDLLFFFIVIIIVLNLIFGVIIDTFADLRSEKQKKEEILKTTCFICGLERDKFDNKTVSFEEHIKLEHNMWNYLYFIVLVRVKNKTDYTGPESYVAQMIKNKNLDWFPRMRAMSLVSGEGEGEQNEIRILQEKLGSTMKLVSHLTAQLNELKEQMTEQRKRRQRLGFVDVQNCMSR

percent of expressed r-InsP3R-3 in heteroligomers with X-InsP3R-1: 7 to 10%
Substance: recombinant rat type 3 inositol 1,4,5-trisphosphate receptor, Q63269 1-2670
